Test results from the supplement of paper PMC10567573.

B1: STX11 (parent)
chain: FQRAMHDYNQAEMKQRDNCKIRIQ

Variants of: B1
Assay: protein stability index of a GFP-peptide fusion (GPS, HEK-293T) (PSI 1-6); higher = more stable
Conditions: c terminus: a fixed tail appended
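Note: lentivirally expressed fusions sorted by FACS into six bins by GFP to DsRed ratio, PSI derived from sequencing read proportions per bin multiplied by bin number.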

Variant | protein stability index
FQRAMHDYNQAEMKQRDNCKIRRQ | 2.74
FQRAMHDYNQAEMKQRDNCKIREQ | 3.53
FQRAMHDYNQAEMKQRDNCKIRFQ | 2.5
FQRAMHDYNQAEMKQRDNCKIRSQ | 2.66
FQRAMHDYNQAEMKQRDNCKIRMQ | 2.99
FQRAMHDYNQAEMKQRDNCKIRCQ | 2.9
FQRAMHDYNQAEMKQRDNCKIRLQ | 2.87
FQRAMHDYNQAEMKQRDNCKIRGQ | 3.25
FQRAMHDYNQAEMKQRDNCKIRVQ | 2.85
FQRAMHDYNQAEMKQRDNCKIRDQ | 3.38
FQRAMHDYNQAEMKQRDNCKIRQQ | 3.52
FQRAMHDYNQAEMKQRDNCKIRHQ | 2.8
FQRAMHDYNQAEMKQRDNCKIRTQ | 3.19
FQRAMHDYNQAEMKQRDNCKIRWQ | 2.83
FQRAMHDYNQAEMKQRDNCKIRAQ | 3.51
FQRAMHDYNQAEMKQRDNCKIRPQ | 3.24
FQRAMHDYNQAEMKQRDNCKIRYQ | 2.98
FQRAMHDYNQAEMKQRDNCKIRKQ | 2.93
FQRAMHDYNQAEMKQRDNCKIRNQ | 3.78
FQRAMHDYNQAEMKQRDNCKIRIV | 2.42
FQRAMHDYNQAEMKQRDNCKIRIE | 3.17
FQRAMHDYNQAEMKQRDNCKIRIK | 2.87
FQRAMHDYNQAEMKQRDNCKIRID | 2.81
FQRAMHDYNQAEMKQRDNCKIRIR | 2.33

Variant | protein stability index
FQRAMHDYNQAEMKQRDNCKIRIS | 2.27
FQRAMHDYNQAEMKQRDNCKIRIA | 2.62
FQRAMHDYNQAEMKQRDNCKIRIY | 2.05
FQRAMHDYNQAEMKQRDNCKIRII | 2.36
FQRAMHDYNQAEMKQRDNCKIRIG | 2.75
FQRAMHDYNQAEMKQRDNCKIRIN | 2.95
FQRAMHDYNQAEMKQRDNCKIRIH | 2.74
FQRAMHDYNQAEMKQRDNCKIRIC | 2.3
FQRAMHDYNQAEMKQRDNCKIRIW | 1.6
FQRAMHDYNQAEMKQRDNCKIRIT | 2.77
FQRAMHDYNQAEMKQRDNCKIRIL | 3.09
FQRAMHDYNQAEMKQRDNCKIRIF | 2.17
FQRAMHDYNQAEMKQRDNCKIRIM | 2.69
FQRAMHDYNQAEMKQRDNCKIRIP | 2.83
FQRAMHDYNQAEMKQRDNSKIRIQ | 3.27
FQRAMHDYNQAEMKQRDNPKIRIQ | 3.71
FQRAMHDYNQAEMKQRDNMKIRIQ | 2.85
FQRAMHDYNQAEMKQRDNNKIRIQ | 3.7
FQRAMHDYNQAEMKQRDNFKIRIQ | 1.85
FQRAMHDYNQAEMKQRDNRKIRIQ | 2.59
FQRAMHDYNQAEMKQRDNLKIRIQ | 2.54
FQRAMHDYNQAEMKQRDNYKIRIQ | 2.61
FQRAMHDYNQAEMKQRDNKKIRIQ | 3.38
FQRAMHDYNQAEMKQRDNQKIRIQ | 2.77

Variant | protein stability index
FQRAMHDYNQAEMKQRDNEKIRIQ | 3.06
FQRAMHDYNQAEMKQRDNIKIRIQ | 2.55
FQRAMHDYNQAEMKQRDNDKIRIQ | 2.85
FQRAMHDYNQAEMKQRDNVKIRIQ | 2.96
FQRAMHDYNQAEMKQRDNGKIRIQ | 3.06
FQRAMHDYNQAEMKQRDNHKIRIQ | 4.44
FQRAMHDYNQAEMKQRDNTKIRIQ | 3.04
FQRAMHDYNQAEMKQRDNAKIRIQ | 2.98
FQRAMHDYNQAEMKQRDNWKIRIQ | 2.35
FQRAMHDYNQAEMKQWDNCKIRIQ | 2.43
FQRAMHDYNQAEMKQVDNCKIRIQ | 2.63
FQRAMHDYNQAEMKQYDNCKIRIQ | 2.65
FQRAMHDYNQAEMKQRDCCKIRIQ | 2.3
FQRAMHDYNQAEMKQRDSCKIRIQ | 2.48
FQRAMHDYNQAEMKQRDTCKIRIQ | 3.21
FQRAMHDYNQAEMKQRDECKIRIQ | 3.11
FQRAMHDYNQAEMKQRDHCKIRIQ | 2.02
FQRAMHDYNQAEMKQRDGCKIRIQ | 2.41
FQRAMHDYNQAEMKQRDQCKIRIQ | 2.5
FQRAMHDYNQAEMKQRDPCKIRIQ | 2.91
FQRAMHDYNQAEMKQRDRCKIRIQ | 2.44
FQRAMHDYNQAEMKQRDACKIRIQ | 2.53
FQRAMHDYNQAEMKQRDKCKIRIQ | 2.56
FQRAMHDYNQAEMKQRDMCKIRIQ | 2.59

Variant | protein stability index
FQRAMHDYNQAEMKQRDLCKIRIQ | 2.48
FQRAMHDYNQAEMKQRDFCKIRIQ | 2.36
FQRAMHDYNQAEMKQRDWCKIRIQ | 2.17
FQRAMHDYNQAEMKQRDYCKIRIQ | 2.17
FQRAMHDYNQAEMKQRDVCKIRIQ | 2.17
FQRAMHDYNQAEMKQRDDCKIRIQ | 2.88
FQRAMHDYNQAEMKQRDICKIRIQ | 2.41
FQRAMHDYNQAEMKQRDNCKYRIQ | 2.93
FQRAMHDYNQAEMKQRDNCKNRIQ | 2.98
FQRAMHDYNQAEMKQRDNCKWRIQ | 3.17
FQRAMHDYNQAEMKQRDNCKMRIQ | 3.12
FQRAMHDYNQAEMKQRDNCKARIQ | 3.01
FQRAMHDYNQAEMKQRDNCKFRIQ | 2.34
FQRAMHDYNQAEMKQRDNCKTRIQ | 3.17
FQRAMHDYNQAEMKQRDNCKQRIQ | 3.04
FQRAMHDYNQAEMKQRDNCKCRIQ | 2.36
FQRAMHDYNQAEMKQRDNCKVRIQ | 1.92
FQRAMHDYNQAEMKQRDNCKKRIQ | 2.68
FQRAMHDYNQAEMKQRDNCKPRIQ | 2.9
FQRAMHDYNQAEMKQRDNCKLRIQ | 2.29
FQRAMHDYNQAEMKQRDNCKSRIQ | 3.5
FQRAMHDYNQAEMKQRDNCKRRIQ | 3.56
